Consider 20 sequences from the DeepSol protein solubility set.

The series is described as follows: soluble on expression in E. coli; label from the status in PepcDB or PDB records.
For the sequence “MGSSHHHHHHSSGLVPRGSHMSLDMKEHPDAEVQKNQVLTLEDWKEKWVTRHISFHQEQGHQLLKKHLDTFLKGQSGLRVFFPLCGKAIEMKWFADRGHTVVGVEISEIGIREFFAEQNLSYTEEPLAEIAGAKVFKSSSGSISLYCCSIFDLPRANIGKFDRIWDRGALVAINPGDHDRYADIILSLLRKEFQYLVAVLSYDPTKHAGPPFYVPSAELKRLFGTKCSMQCLEEVDALEERHKAWGLDYLFEKLYLLTEK”, the “soluble on expression in E. coli” value is “soluble”. On to “MSMDISDFYQTFFDEADELLADMEQHLLDLVPESPDAEQLNAIFRAAHSIKGGAGTFGFTILQETTHLMENLLDEARRGEMQLNTDIINLFLETKDIMQEQLDAYKNSEEPDAASFEYICNALRQLALEAKGETTPAVRSHHHHHH”, for which the “soluble on expression in E. coli” value is “soluble”. Take “MTESFAELFEASQANLAKLKPGSIVTGTVVEVRGDVVVINAGLKSEGIVPIEQFRNDAGEIDVGVGDQVKVALDSIENGFGETVLSREKAKRAMVWDELEEALEKNETITGRISGKVKGGFTVDIKDVRAFLPGSLVDVRPVRDPAYLEGKELEFKLIKLDRKRNNVVVSRRAVVESEHSEEREQLMDKLQEGAILKGVVKNLTDYGAFVDLGGIDGLLHITDMAWKRVRHPSEVVNVGDELDVRVLKFDRERNRVSLGLKQLGEDPWDNIARRYPANSRVFGKVSNVTDYGAFVEIEPGVEGLVHVSEMDWTNKNVNPSKVVQVGDEVEVMVLDVDEERRRISLGMKQVAANPWETFAATHKKNDKVSGQIKSITDFGIFIGLDGGIDGLVHLSDISWNTTGEDVVRNYKKGDTLEAVVLAVDPERERISLGVKQLEQDPFGQYMASNPKGSKVEGVVREVDAKGATIDLADGIEGYVAARDIANERVDDATQHLKVGDKIEAKFVGMDRKGRTLQLSIKAKDDAEMRETLEDYQSASASGGMTQLGALLRAQLNNNKSELEHHHHHH”: the “soluble on expression in E. coli” value is recorded as “not soluble”. Regarding “MLKSSASAPAKAILFGEHAVVYSKPAIAAAIDRRVTVTVSESSSTHVTIPSLGIRHSSERPSGGILDYIGRCLELYHDASPLDIRVEMEIPAGSGLGSSAALTVALIGPLDRYHGRDHGPGETAARAHRVEVDVQGAASPLDTAISTYGGLVYLDSQRRVRQFEADLGDLVIAHLDYSGETARMVAGVAERFRRFPDIMGRIMDTVESITNTAYRELLRNNTEPLGELMNLNQGLLDSMGVSTRELSMMVYEARNAGAAGSKITGAGGGGSIIAHCPGCVDDVVTALNRNWKAMRAEFSVKGLI”, the “soluble on expression in E. coli” value is given as “soluble”.

Turning to “SLSWLTTHFVVTNRRVMFRHGVLTRSGIDIPLARINSVEFRDRIFERIFRTGTLIIESASQDPLEFYNIPRLREVHALLYHEVFDTLGSDESPS”, the “soluble on expression in E. coli” value is “soluble”. On to “MSDLYRNKKILAPMVRAGRTPLRLLCLKYGADLCYTEEIVDKKLIEATRVVNEALGTIDYRNGDDIILRLAPEEKGRCILQIGTNSGEKAAKIAQIVGDDVAGIDVNMGCPKPFSIHCGMGAALLTQTEKIVDILTSLKSAAKVPVTCKIRVLDDPEDTLKLVQEIEKCRVSALGVHGRRRDERQPDKCRIDEIRDVAQAVQSIPVISNGLSDEIEQYSDFEKYQLLTETSSTMIARKALSTPSIFRREGCLDKYEDIRNFLELACQYDESYTMTKYVVQRILGADQEYDPRGKATVAAGSVLQICKAFGMEDVYDKWRDERKKKQSKKRARVDDDGVYNIEVSFPLKRLKNSVGFSPTPKMVLHDYCVETKIPKATYEVVKRDDKRFVATACIGDKKYRSGIGQPNLRMAEQVAALAALHGMNIRNLLVGNWEEE”, for which the “soluble on expression in E. coli” value is on record as “not soluble”. Regarding “SSGIHVALVTGGNKGIGLAIVRDLCRLFSGDVVLTARDVTRGQAAVQQLQAEGLSPRFHQLDIDDLQSIRALRDFLRKEYGGLDVLVNNAGIAFKVADPTPFHIQAEVTMKTNFFGTRDVCTELLPLIKPQGRVVNVSSIMSVRALKSCSPELQQKFRSETITEEELVGLMNKFVEDTKKGVHQKEGWPSSAYGVTKIGVTVLSRIHARKLSEQRKGDKILLNACCPGWVRTDMAGPKATKSPEEGAETPVYLALLPPDAEGPHGQFVSEKRVEQW”, the “soluble on expression in E. coli” value is reported as “soluble”.

Consider “MTTEAPIWPAELFEDLDRNGPIPLYFQVAQRLEDGIRSGVLPPGARLENEISVAKHLNVSRPTVRRAIQEVVDKGLLVRRRGVGTQVVQSHVTRPVELTSFFNDLKNANLDPKTRVLEHRLLAASSAIAEKLGVSAGDEVLLIRRLRSTGDIPVAILENYLPPAFNDVSLDELEKGGLYDALRSRGVVLKIANQKIGARRAVGEESTLLDIEDGGPLLTVERVALDNSGQVIELGSHCYRPDMYNFETTLVAR”, for which the “soluble on expression in E. coli” value was “soluble”. As to “HMTELLKNHVAGQWIAGTGAGITLTDPVTGVALVRVSSEGLDLARAFSFAREDGGAALRALTYAQRAARLADIVKLLQAKRGDYYAIATANSGTTRNDSAVDIDGGIFTLSYYAKLGASLGEVHALRDGSAESLSKDRSFSAQHVLSPTRGVALFINAFNFPSWGLWEKAAPALLSGVPVIVKPATATAWLTQRMVADVVDAGILPPGALSIICGSSAGLLDQIRSFDVVSFTGSADTAATLRAHPAFVQRGARLNVEADSLNSAILCADATPDTPAFDLFIKEVVREMTVKSGQKCTAIRRAFVPEAALEPVLEALKAKLAKITVGNPRNDAVRMGSLVSREQYENVLAGIAALREEAVLAYDSSAVPLIDADANIAACVAPHLFVVNDPDNATLLHDVEVFGPVASVAPYRVTTDTNALPEAHAVALARRGQGSLVASIYSNDDAHLGRLALELADSHGRVHAISPSVQHSQTGHGNVMPMSLHGGPGRAGGGEELGGLRALAFYHRRSAIQAASAAIGTLTQATHWPAA”, the “soluble on expression in E. coli” value is “soluble”.

As to “MQAYSNPGYSSFPSPTGLEPSCKSCGAHFANTARKQTCLDCKKNFCMTCSSQVGNGPRLCLLCQRFRATAFQREELMKMKVKDLRDYLSLHDISTEMCREKEELVLLVLGQQPVISQEDR”, the “soluble on expression in E. coli” value is “soluble”. The value for “MSLEDNERVDHLIKEGYEIIQNDEVFSFSTDALLLGYLTEVRKNDKVMDLCSGNGVIPLLLAAKSTQPIEGIEIQEQLVSMARRSFKLNDLNDRLTMHHMDLKDVYQTFQPAQYTLVTCNPPYFKMNQNHQHQKEAHKIARHEIMCNLKDCIEAARHLLKEGGRFIMVHRAERLMDVLTELRHGKIEPKALTLVYSKHDKPAQTIVVEGRKGGNQGLDIRNPLYIYNEDGSYSDEMKGVYYGEGHHHHHH” was “soluble”.

On to “MEIERRLVLEVVRVTEQAALAASRFAGKGDKEAVDEAGTQAMRRVLNELPIRGTVVIGEGEMDEAPMLYIGEVLGQGGLEVDIAVDPVEGTTTVAKGLPNAVTVIALSEKGGLFHAPDMYMEKLIVPPSAVGLVDLTWPVSVNLRALALALQRSVEDLVVVVLEPPRHERLIREIRKAGAPVKLISDGDVIAALAAAIRGTGVHAVMGIGGAPEGVLTAAALKCLGGEIQARFVPQNEEERERLKAMGGDEHRIYKTEDLAPGKEIVFAATGITDGDILEGVRFFGGGARTHSIVMGHATRVVRFIDSIHLFETGARVTIRV”, for which the “soluble on expression in E. coli” value is reported as “soluble”. Take “MAHHHHHHMDKDKDKSKNTPLLYQDTMNDLGDGLQNMDTLRLNRNGNTGNGNKNKTNGSKGVKGEYEKKKETNGHDDYVKESLNRMLESHIDQYFKGLDYYKNNPKCKIDPKIHLHGSEEIENYIVKEKIFVTTYFQYIDVYENAINVDEDLEKEEIVYVEVPKYVTKYKPKIVTNIIEKTIEIPSGEEIKQPKYNTVNVPYVIPNIVENEILVVLKKIIQPEIEITNEELEIEVEKYIPRLVPVNVYVPRYFGISAKAKGEPEESVRYVDLTQDQIDELMKELNPHLNELKVFNETQLKRMDEYMRESQMQARAHNFEPPQPQLITYDESGHCQSYDYSEFHRFKETCIKELTH”: the “soluble on expression in E. coli” value was “not soluble”. Take “SLNEQELQDLQKMVGVAVNALGDIKAKDISVLETQDKTSLFARMIIASGDSTRQVKALANNVAVDLKEAGFEILSTEGDSGEWTLVDAGDLVVHVMLPAVRDFYDIDTLWGGEKPSFHAGMQKPWHAAD”: the “soluble on expression in E. coli” value is listed as “soluble”. For the sequence “MAHHHHHHVDDDDKMVSTTPAAGVLDTSVFIATESGRQLDEALIPDRVATTVVTLAELRVGVLAAATTDIRAQRLATLESVADMETLPVDDDAARMWARLRIHLAESGRRVRINDLWIAAVAASRALPVITQDDDFAALDGAASVEIIRV”, the “soluble on expression in E. coli” value was “soluble”.

On to “MARIRARGSACPSQCSCSGTTVDCSGKSLASVPTGIPTTTQVLYLYDNQITKLEPGVFDRLTQLTRLDLDNNQLTVLPAGVFDKLTQLTQLSLNDNQLKSIPRGAFDNLKSLTHIWLLNNPWDCACSDILYLSRWISQHPGLVFGYLNLDPDSARCSGTNTPVRAVTEASTSPSKCPG”, for which the “soluble on expression in E. coli” value is “soluble”. Then “DTTERKRREKRLEETSSRLEALFENSPDMIDVLDADGTICEVNQRFCAELGYDESEVLGRSIWEFDLMFDAEDVQTQLSGFSVDERRKFEGLYERRDGSTMSVEVHLLRFNLEGEDRFLAISRD”, with “soluble”.

For the sequence “KTIAIIGAGIVGVSTAIWLQRDGHQVVLIDRAGPAEGTSYGNGGVLASCSIVPVTTPGLIAKAPRMLFSPNEPLFLRWGYLPRLAPWLLRYLRRANARDATQTAAAMAPIVGDSLADHLALAQGTGAEKWVVPSDYLFIYNDRAHFQGDAFGWNLRRQNGFVWDEMEAEEFRGYDPIFSSDLRFAVRLKDHGRITDPGQYVKDLAAHVVASGGQLIQADVEDIARENGRVTGVRAGGRTIPCDAAVIATGVWSGPLARKLGLEVPLEAERGYHIEFWNPNFMPKSPVMVAARKFVATPMEGRLRLAGVVEFGGLDAGPSRAPIELLKRSAAAVFPGLKADEVTEWLGHRPAPADSIPVIGELPHLKGAFTGFGHHHVGLTGGPKTGRILAQLIAGRQPNIDL”, the “soluble on expression in E. coli” value was “not soluble”. For “MGSDKIHHHHHHMSDAAIAQDLAALAAQLQTLAGLQGKRDIQAAAASLPHRPFPKLGLAAALGDDAALLPATANRLLFACEGIHPDLVAEDPWFAGWSGVLVNLSDIAAMGGRPIAVVNSLWSRDRQHADQVFAGLQFAAEKFGIPIVGGHSNLQSPYSALSVAVLGQVGPHVLSARSAQAGDRCYLLINRDGQFYRHYPFWDAATGTAPEQLRRHWELMAQLADAGLVSAAKDVSMGGLIGTAVMFAETSGAGLDLHLDRLSYPAGVSRDRWLTCFPSFGFLLAVPEACCDRFLQRVATEPDLTCDHLGSFTNTGQVRLCDRQAQVCFWDCQEQSLMGFSALTDPESPH”, the “soluble on expression in E. coli” value is reported as “not soluble”. In the case of “NPSTTKAPLADYLAHLPLAEEERERLGESASFSELHARLAGAEGAAADAGGDPALASVRARLQLGTPELDDAEMFGVDAQGRTFLKISPPIRRTKVIPEPWRTNILVRGWRRLTGRSNPPKPKRALPRARWQ”, the “soluble on expression in E. coli” value was “not soluble”.
